Consider 38 sequences from the supplement of paper PMC7877785.

A short description of this data set: self-splicing fitness, log relative to wild type (ln ratio); higher = more splicing; Tetrahymena group I intron in knt gene, E. coli kanamycin selection, DiMSum; sequences stand for … in CUCUCU…GGAGGGAAAAGUUAUCAGGCAUGCACCUGGUAGCUAGUCUUUAAACCAAUAGAUUGCAUCGGUUUAAAAGGCAAGACCGUCAAAUUGCGGGAAAGGGGUCAACAGCCGUUCAGUACCAAGUCUCAGGGGAAACUUUGAGAUGGCCUUGCAAAGGGUAUGGUAAUAAGCUGACGGACAUGGUCCUAACCACGCAGCCAAGUCCUAAGUCAACAGAUCUUCUGUUGAUAUGGAUGCAGUUCACAGACUAAAUGUCGGUCGGGGAAGAUGUAUUCUUCUCAUAAGAUAUAGUCGGACCUCUCCUUAAUGGGAGCUAGCGGAUGAAGUGAUGCAACACUGGAGCCGCUGGGAACUAAUUUGUAUGCGAAAGUAUAUUGAUUAGUUUUGGAGUACUCGUGGUCG
The method in brief:
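Six replicate transformations of E. coli BL21(DE3) with a pET-22b(+) library were grown overnight at 37°C or 30°C. The library randomised all eight P1ex-region intron nucleotides, the intron lying in the knt kanamycin-resistance gene, and plates were LB agar with or without 25 μg/mL kanamycin plus 100 μg/mL carbenicillin, 50 μM IPTG and 0.2% rhamnose. Pooled colonies were amplicon-sequenced on an Illumina HiSeq 2500, and fitness is the DiMSum error-weighted combination of wild-type-normalised replicate fold changes, kanamycin versus none.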

± gives the uncertainty stated by the source.

As for CCUCAGCAAUAUUACGCCAU, the “self-splicing fitness (ln)” value by setting is: (30 °C) -2.88 ± 0.35; (37 °C) -1.8 ± 0.18. As for UUGAAGCAAUAUUACGGCUU, the “self-splicing fitness (ln)” value runs as follows: (30 °C) -3.03 ± 0.26; (37 °C) -2.71 ± 0.3.

Regarding UCCGAGCAAUAUUACGUUCU, the “self-splicing fitness (ln)” value reads like this: (30 °C) -3.44 ± 0.29; (37 °C) -2.62 ± 0.26. Take UUAUAGCAAUAUUACGGAAU: the “self-splicing fitness (ln)” value (30 °C) is -3.67 ± 0.36. Consider UUUAAGCAAUAUUACGUAUG, for which the “self-splicing fitness (ln)” value runs as follows: (30 °C) -1.44 ± 0.13; (37 °C) -0.482 ± 0.16. The corresponding values for AUCCAGCAAUAUUACGUGAA are -0.631 ± 0.049 and -0.212 ± 0.072. For the sequence AAGAAGCAAUAUUACGCUUA, the “self-splicing fitness (ln)” value (30 °C) is -1.05 ± 0.12 and the “self-splicing fitness (ln)” value (37 °C) was -0.977 ± 0.13. Regarding CUCCAGCAAUAUUACGAUCU, the “self-splicing fitness (ln)” value is -4.21 ± 0.27 (30 °C) and -1.16 ± 0.12 (37 °C). On to GUGGAGCAAUAUUACGGAGU, for which the “self-splicing fitness (ln)” value is -3.56 ± 0.31 (30 °C) and -2.25 ± 0.29 (37 °C). As to AUUGAGCAAUAUUACGCGAU, the “self-splicing fitness (ln)” value runs as follows: (30 °C) -3.68 ± 0.32; (37 °C) -2.33 ± 0.34. As to UAGCAGCAAUAUUACGGCUC, the “self-splicing fitness (ln)” value is -0.698 ± 0.094 (30 °C) and -0.839 ± 0.12 (37 °C). UAAUAGCAAUAUUACGUCUA: the “self-splicing fitness (ln)” value (30 °C) was -0.149 ± 0.084 and the “self-splicing fitness (ln)” value (37 °C) amounted to 0.263 ± 0.087. In the case of UGCGAGCAAUAUUACGCUUG, the “self-splicing fitness (ln)” value reads like this: (30 °C) -3.11 ± 0.37; (37 °C) -2.05 ± 0.3.

With UAACAGCAAUAUUACGUUGU, the “self-splicing fitness (ln)” value by setting is: (30 °C) -4.18 ± 0.16; (37 °C) -2.67 ± 0.14. Turning to GACAAGCAAUAUUACGUCUU, the “self-splicing fitness (ln)” value was -2.08 ± 0.082 (30 °C) and -1.05 ± 0.085 (37 °C). Regarding UAUUAGCAAUAUUACGAUAG, the “self-splicing fitness (ln)” value runs as follows: (30 °C) -0.949 ± 0.16; (37 °C) -0.79 ± 0.17. On to AUGUAGCAAUAUUACGUUUC, for which the “self-splicing fitness (ln)” value (30 °C) was -2.86 ± 0.24 and the “self-splicing fitness (ln)” value (37 °C) was -2.55 ± 0.26. Consider CGCAAGCAAUAUUACGGCUU, for which the “self-splicing fitness (ln)” value runs as follows: (30 °C) -2.5 ± 0.14; (37 °C) -2.28 ± 0.2. For AUUCAGCAAUAUUACGCGGU the same measures were -3 ± 0.14 and -2.21 ± 0.15. The corresponding values for UAAAAGCAAUAUUACGGCGC are -1.64 ± 0.12 and -0.483 ± 0.13. On to CACUAGCAAUAUUACGGUUU, for which the “self-splicing fitness (ln)” value (30 °C) is -1.56 ± 0.077 and the “self-splicing fitness (ln)” value (37 °C) was -0.979 ± 0.093. Turning to UCGUAGCAAUAUUACGCCAU, the “self-splicing fitness (ln)” value (37 °C) was -0.949 ± 0.45. In the case of AACUAGCAAUAUUACGCCUC, the “self-splicing fitness (ln)” value was -2.29 ± 0.3 (30 °C) and -0.975 ± 0.24 (37 °C). On to GUACAGCAAUAUUACGAAUU, for which the “self-splicing fitness (ln)” value by setting is: (30 °C) -2.29 ± 0.16; (37 °C) -1.69 ± 0.15. Turning to GCGAAGCAAUAUUACGCUGG, the “self-splicing fitness (ln)” value (30 °C) was -1.61 ± 0.13 and the “self-splicing fitness (ln)” value (37 °C) was -2.73 ± 0.22. As to GUCUAGCAAUAUUACGCUGG, the “self-splicing fitness (ln)” value is -2.84 ± 0.36 (30 °C) and -2.2 ± 0.27 (37 °C). Regarding UAAUAGCAAUAUUACGUACG, the “self-splicing fitness (ln)” value runs as follows: (30 °C) -2.13 ± 0.13; (37 °C) -1.16 ± 0.17. The corresponding values for CGGUAGCAAUAUUACGACGU are -1.76 ± 0.13 and -1.08 ± 0.17. With UGAAAGCAAUAUUACGGCUC, the “self-splicing fitness (ln)” value was -1.4 ± 0.13 (30 °C) and -0.842 ± 0.12 (37 °C). As for GCCUAGCAAUAUUACGGCAA, the “self-splicing fitness (ln)” value reads like this: (30 °C) -2.64 ± 0.15; (37 °C) -1.75 ± 0.14.

For the sequence AAUUAGCAAUAUUACGGUGU, the “self-splicing fitness (ln)” value was -2.48 ± 0.091 (30 °C) and -1.32 ± 0.098 (37 °C). In the case of CCGCAGCAAUAUUACGUAGU, the “self-splicing fitness (ln)” value is -3.89 ± 0.14 (30 °C) and -2.88 ± 0.18 (37 °C). For UAGGAGCAAUAUUACGAUCA, the “self-splicing fitness (ln)” value is, setting by setting: (30 °C) -1.02 ± 0.2; (37 °C) -0.542 ± 0.28. For the sequence AGUAAGCAAUAUUACGUCCG, the “self-splicing fitness (ln)” value by setting is: (30 °C) -2.03 ± 0.17; (37 °C) -0.809 ± 0.21. Turning to AGUAAGCAAUAUUACGUGUG, the “self-splicing fitness (ln)” value is, setting by setting: (30 °C) -4.26 ± 0.18; (37 °C) -2.32 ± 0.12. For the sequence AGCAAGCAAUAUUACGGUUU, the “self-splicing fitness (ln)” value is -1.28 ± 0.051 (30 °C) and -0.398 ± 0.066 (37 °C). Regarding GUACAGCAAUAUUACGUGUC, the “self-splicing fitness (ln)” value is, setting by setting: (30 °C) -3.39 ± 0.2; (37 °C) -2.06 ± 0.2. Take CAUAAGCAAUAUUACGUGGA: the “self-splicing fitness (ln)” value is, setting by setting: (30 °C) -3.5 ± 0.22; (37 °C) -2.53 ± 0.21.
